Data on one substance can be found in US20240002491A1, “METHODS FOR SELECTING PATIENTS FOR TREATMENT WITH AN NGF ANTAGONIST” (Regeneron Pharmaceuticals, Inc., priority 2022, published 2024).

The data set deals with alkaline phosphatase. Conditions: DA patients at all doses; by 16 weeks.

From the text: Three non-overlapping subgroups are shown: patients without AA, patients with DA and patients with non-DA AAs.

For the substance “Fasinumab: fully-human high-affinity monoclonal antibody directed against NGF; HCVR/LCVR SEQ ID NOs: 2/10”, the “mean change from baseline in alkaline phosphatase” value was found to be 20 U/L.
